Results from article PMC4429812 (Biochemistry, 2015).
“And” between values parts separate entries of the source, which are not always exact repeats. Equal values may be shown once.

T1: clathrin N-terminal domain (TD) of the clathrin heavy chain, bovine, residues 1-363 (bovine, UniProt P49951 1-363)
T1 sequence (looked up): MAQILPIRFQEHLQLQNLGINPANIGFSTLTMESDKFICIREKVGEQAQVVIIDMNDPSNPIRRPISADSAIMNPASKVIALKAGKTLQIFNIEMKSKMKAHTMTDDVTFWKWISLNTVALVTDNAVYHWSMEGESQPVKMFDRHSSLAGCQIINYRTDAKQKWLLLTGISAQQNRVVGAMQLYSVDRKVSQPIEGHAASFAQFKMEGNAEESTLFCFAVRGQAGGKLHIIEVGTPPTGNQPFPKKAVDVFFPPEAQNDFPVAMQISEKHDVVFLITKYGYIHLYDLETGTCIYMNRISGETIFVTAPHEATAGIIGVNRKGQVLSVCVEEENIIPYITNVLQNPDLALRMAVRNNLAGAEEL


Assays:
[1] = molecular target: amphiphysin clathrin-box peptide clathrin-box peptide (UniProt P49418); details: cited from earlier work
Chain of amphiphysin clathrin-box peptide clathrin-box peptide (P49418 whole entry, looked up, the tested form may be a part): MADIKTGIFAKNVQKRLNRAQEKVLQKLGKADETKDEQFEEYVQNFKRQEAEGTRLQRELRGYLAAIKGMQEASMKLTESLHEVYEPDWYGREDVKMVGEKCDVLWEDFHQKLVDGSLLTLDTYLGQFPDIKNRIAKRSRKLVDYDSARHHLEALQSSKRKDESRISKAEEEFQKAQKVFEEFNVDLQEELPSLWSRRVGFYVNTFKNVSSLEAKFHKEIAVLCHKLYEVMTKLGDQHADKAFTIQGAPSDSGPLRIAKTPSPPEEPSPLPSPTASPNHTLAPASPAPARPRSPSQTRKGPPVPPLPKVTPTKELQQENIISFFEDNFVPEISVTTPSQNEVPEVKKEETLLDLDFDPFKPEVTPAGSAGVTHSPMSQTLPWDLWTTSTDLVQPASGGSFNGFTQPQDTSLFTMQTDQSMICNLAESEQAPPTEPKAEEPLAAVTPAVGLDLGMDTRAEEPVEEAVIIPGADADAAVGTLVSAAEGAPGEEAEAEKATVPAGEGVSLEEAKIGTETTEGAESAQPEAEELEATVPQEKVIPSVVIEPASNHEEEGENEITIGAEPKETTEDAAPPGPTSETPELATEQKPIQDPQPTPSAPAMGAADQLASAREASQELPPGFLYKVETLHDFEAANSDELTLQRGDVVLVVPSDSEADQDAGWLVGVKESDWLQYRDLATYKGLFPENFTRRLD

[2] = molecular target: T1, clathrin N-terminal domain (TD) of the …; assay: NMR titration
[3] = molecular target: T1, clathrin N-terminal domain (TD) of the …; assay: ITC

| Molecule | Kd [1] | Kd [2] | stoichiometry N [2] | Kd [3] | dH [3] | stoichiometry N [3] |
| --- | --- | --- | --- | --- | --- | --- |
| clathrin heavy chain N-terminal domain (from UniProt P49951) | 22 µM | – | – | – | – | – |
| CPQAVASSSASADLLAGFGGSFMAPS [AP180 peptide 2 (residues 655-679 of mouse AP180)] | – | 899 ± 529 µM | 3.7 ± 0.6 | – | – | – |
| CQVIPSQGDLLGDLLNLDLGPPVNVPQ [AP2 peptide (clathrin-box peptide from the hinge of the AP2 β2 subunit, residues 619-644)] | – | 867 ± 246 µM | 2.6 ± 0.4 | 420 µM and 474 µM | -2.8 kcal/mol | 3.01 and 3 |
| CSPAKAESSGVIDLFGDAFGSGASETQ [AP180 peptide 1 (residues 627-652 of mouse AP180)] | – | 829 ± 221 µM | 3.9 ± 0.3 | – | – | – |
